Measured values reported in patent US9289381B2, “Stabilization and storage of biological pharmaceutical compositions” (The University of North Carolina at Charlotte, priority 2009, dated 2016).
Values joined by “and” are separate entries in the source; they are usually repeats but may differ in a detail not shown here. Equal values may be shown once.

Test: Microcalorimetry (DSC) of HEWL dispersions stored in 80% w/w CDHP or 0.1M NaOAc
Type: physicochemical
Parameters: Thermal transition midpoint temperature of HEWL: unit not given here
Description: The samples were formulated in 2 ml silanized glass vials to reduce protein-surface interactions, covered with cap and septa, wrapped with parafilm to ensure no drying out of the sample, and stored away from sunlight. They were stirred for at least 24 hours until a homogeneous distribution of protein was obtained. […] The 35 silanized vials were exposed to UV light for 24 hours to ensure sterility. Control samples at equivalent concentrations were also prepared in triplicates in 0.1M NaOAc buffer (pH 4). Samples were tested for thermal stability via microcalorimetry and functional activity via the micrococcus lysodeikticus assay at monthly intervals.
A MicroCal VP-DSC microcalorimeter was used to assess thermal structural stability of all samples. Baseline repeatability was established with a minimum of 5 buffer-buffer scans. […] HEWL solutions were tested similarly with no dilution of the samples. Between samples, during the filling period of 15° C. to 25° C., the sample cell of the DSC was flushed with at least 25 ml distilled H2O, then at least 15 ml NaOAc to ensure no sample residue remained behind. Thermal profiles, enthalpy changes, and transition temperatures were obtained with Origin software.
All formulations were diluted to 0.1-0.5 mg/ml for testing. This allows one to observe how well protein thermal stability and structural integrity is maintained following storage and then dilution into a solution of similar composition as the environment of the body.

[1] = stored at 10 mg/ml in Choline dhp, 1 month
[2] = stored at 10 mg/ml in Choline dhp, 2 months
[3] = stored at 10 mg/ml in Choline dhp, 3 months
[4] = stored at 10 mg/ml in Choline dhp, 4 months
[5] = stored at 10 mg/ml in Choline dhp, 5 months
[6] = stored at 100 mg/ml in Choline dhp, 0 months
[7] = stored at 100 mg/ml in Choline dhp, 1 month
[8] = stored at 100 mg/ml in Choline dhp, 2 months
[9] = stored at 100 mg/ml in Choline dhp, 3 months
[10] = stored at 100 mg/ml in Choline dhp, 4 months
[11] = stored at 100 mg/ml in Choline dhp, 5 months

HEWL: hen egg white lysozyme (HEWL), a well characterized protein, purchased from Worthington Biochem
Enthalpy of unfolding of HEWL (stored at 10 mg/ml in 0.1M NaOAc, 4 months): 24.8706 kcal/mol and 36.9316 kcal/mol and 26.9568 kcal/mol
Enthalpy of unfolding of HEWL (stored at 10 mg/ml in 0.1M NaOAc, 5 months): 18.4 kcal/mol and 20.9 kcal/mol and 22.4 kcal/mol
Enthalpy of unfolding of HEWL (stored at 10 mg/ml in Choline dhp (80% w/w CDHP), 0 months): 102 kcal/mol and 101.7 kcal/mol and 108.3 kcal/mol
Thermal transition midpoint temperature of HEWL (stored at 10 mg/ml in Choline dhp, 0 months): 346.71 and 346.74
Enthalpy of unfolding of HEWL [1]: 90.932 kcal/mol and 90.855 kcal/mol and 89.61 kcal/mol
Thermal transition midpoint temperature of HEWL [1]: 346.7 and 346.62 and 346.75
Enthalpy of unfolding of HEWL [2]: 80.771 kcal/mol and 79.236 kcal/mol and 79.113 kcal/mol
Thermal transition midpoint temperature of HEWL [2]: 346.84 and 346.81 and 346.39
Enthalpy of unfolding of HEWL [3]: 56.64 kcal/mol and 55.227 kcal/mol and 63.418 kcal/mol
Thermal transition midpoint temperature of HEWL [3]: 346.98 and 346.52 and 346.35
Enthalpy of unfolding of HEWL [4]: 46.7208 kcal/mol and 47.358 kcal/mol and 51.147 kcal/mol
Thermal transition midpoint temperature of HEWL [4]: 346.47 and 346.43 and 346.5
Enthalpy of unfolding of HEWL [5]: 36.9 kcal/mol and 43 kcal/mol
Thermal transition midpoint temperature of HEWL [5]: 346.27 and 346.37 and 346.21
Thermal transition midpoint temperature of HEWL (stored at 10 mg/ml in NaOAc, 0 months): 346.68 and 346.77 and 347.14
Thermal transition midpoint temperature of HEWL (stored at 10 mg/ml in NaOAc, 1 month): 345.79 and 345.93 and 345.94
Thermal transition midpoint temperature of HEWL (stored at 10 mg/ml in NaOAc, 2 months): 345.85 and 345.9 and 345.8
Thermal transition midpoint temperature of HEWL (stored at 10 mg/ml in NaOAc, 3 months): 345.72 and 345.9 and 345.48
Thermal transition midpoint temperature of HEWL (stored at 10 mg/ml in NaOAc, 4 months): 345.17 and 345.1 and 345.21
Thermal transition midpoint temperature of HEWL (stored at 10 mg/ml in NaOAc, 5 months): 345.13 and 345.05 and 345.15
Enthalpy of unfolding of HEWL (stored at 100 mg/ml in 0.1M NaOAc, 0 months): 101.14 kcal/mol and 105.2 kcal/mol and 108.2 kcal/mol
Enthalpy of unfolding of HEWL (stored at 100 mg/ml in 0.1M NaOAc, 1 month): 62.01 kcal/mol and 56.61 kcal/mol and 71.973 kcal/mol
Enthalpy of unfolding of HEWL (stored at 100 mg/ml in 0.1M NaOAc, 2 months): 58.311 kcal/mol and 60.858 kcal/mol and 54.729 kcal/mol
Enthalpy of unfolding of HEWL (stored at 100 mg/ml in 0.1M NaOAc, 3 months): 46.606 kcal/mol and 46.506 kcal/mol and 46.224 kcal/mol
Enthalpy of unfolding of HEWL (stored at 100 mg/ml in 0.1M NaOAc, 4 months): 30.8889 kcal/mol and 32.07177 kcal/mol and 29.8026 kcal/mol
Enthalpy of unfolding of HEWL (stored at 100 mg/ml in 0.1M NaOAc, 5 months): 26.8 kcal/mol and 29.1 kcal/mol and 23.9 kcal/mol
Enthalpy of unfolding of HEWL [6]: 107.1 kcal/mol and 100.7 kcal/mol and 108.3 kcal/mol
Thermal transition midpoint temperature of HEWL [6]: 347.45 and 347.05 and 347.11
Enthalpy of unfolding of HEWL [7]: 89.97 kcal/mol and 89.606 kcal/mol and 87.876 kcal/mol
Thermal transition midpoint temperature of HEWL [7]: 346.41 and 346.54 and 346.44
Enthalpy of unfolding of HEWL [8]: 75.132 kcal/mol and 76.824 kcal/mol and 77.544 kcal/mol
Thermal transition midpoint temperature of HEWL [8]: 346.42 and 346.43 and 346.47
Enthalpy of unfolding of HEWL [9]: 55.235 kcal/mol and 57.272 kcal/mol and 54.9 kcal/mol
Thermal transition midpoint temperature of HEWL [9]: 346.39 and 346.37
Enthalpy of unfolding of HEWL [10]: 45.2295 kcal/mol and 45.5805 kcal/mol and 49.716 kcal/mol
Thermal transition midpoint temperature of HEWL [10]: 346.3 and 346.35 and 346.37
Enthalpy of unfolding of HEWL [11]: 38.9 kcal/mol and 36.4 kcal/mol and 39.3 kcal/mol
Thermal transition midpoint temperature of HEWL [11]: 346.29 and 346.02 and 346.35
Thermal transition midpoint temperature of HEWL (stored at 100 mg/ml in NaOAc, 0 months): 346.92 and 346.45 and 347.06
Thermal transition midpoint temperature of HEWL (stored at 100 mg/ml in NaOAc, 1 month): 345.92 and 346.17 and 345.84
Thermal transition midpoint temperature of HEWL (stored at 100 mg/ml in NaOAc, 2 months): 345.78 and 346 and 345.69
Thermal transition midpoint temperature of HEWL (stored at 100 mg/ml in NaOAc, 3 months): 345.79 and 345.9 and 345.66
Thermal transition midpoint temperature of HEWL (stored at 100 mg/ml in NaOAc, 4 months): 345.47 and 345.41 and 345.51
Thermal transition midpoint temperature of HEWL (stored at 100 mg/ml in NaOAc, 5 months): 345.39 and 345.41
